{
  "source": "the supplement of paper PMC10567573",
  "parents": {"B1": {"name": "ZNF8 (parent)", "chain": "SLGRHKRTHTGEKPYTCSVCGKSF"}, "B2": {"name": "CRYL1 (parent)", "chain": "RNALENIRKEMKLLEQAGSLKGSL"}},
  "data": [
    {"variants_of": "B1", "assay": "protein stability index of a GFP-peptide fusion (GPS, HEK-293T) (PSI 1-6); higher = more stable", "conditions": "c terminus: a fixed tail appended", "values": [
      {"variant": "RLGRHKRTHTGEKPYTCSVCGKSF", "note": "[S1R]", "protein stability index": 2.82},
      {"variant": "GLGRHKRTHTGEKPYTCSVCGKSF", "note": "[S1G]", "protein stability index": 2.8},
      {"variant": "VLGRHKRTHTGEKPYTCSVCGKSF", "note": "[S1V]", "protein stability index": 2.58},
      {"variant": "NLGRHKRTHTGEKPYTCSVCGKSF", "note": "[S1N]", "protein stability index": 2.63},
      {"variant": "HLGRHKRTHTGEKPYTCSVCGKSF", "note": "[S1H]", "protein stability index": 3.08},
      {"variant": "WLGRHKRTHTGEKPYTCSVCGKSF", "note": "[S1W]", "protein stability index": 1.5},
      {"variant": "QLGRHKRTHTGEKPYTCSVCGKSF", "note": "[S1Q]", "protein stability index": 3.71},
      {"variant": "MLGRHKRTHTGEKPYTCSVCGKSF", "note": "[S1M]", "protein stability index": 2.46},
      {"variant": "ELGRHKRTHTGEKPYTCSVCGKSF", "note": "[S1E]", "protein stability index": 3.94},
      {"variant": "KLGRHKRTHTGEKPYTCSVCGKSF", "note": "[S1K]", "protein stability index": 3.05},
      {"variant": "TLGRHKRTHTGEKPYTCSVCGKSF", "note": "[S1T]", "protein stability index": 2.94},
      {"variant": "YLGRHKRTHTGEKPYTCSVCGKSF", "note": "[S1Y]", "protein stability index": 2.42},
      {"variant": "PLGRHKRTHTGEKPYTCSVCGKSF", "note": "[S1P]", "protein stability index": 2.72},
      {"variant": "CLGRHKRTHTGEKPYTCSVCGKSF", "note": "[S1C]", "protein stability index": 3.6},
      {"variant": "ILGRHKRTHTGEKPYTCSVCGKSF", "note": "[S1I]", "protein stability index": 2.18},
      {"variant": "FLGRHKRTHTGEKPYTCSVCGKSF", "note": "[S1F]", "protein stability index": 2.21},
      {"variant": "ALGRHKRTHTGEKPYTCSVCGKSF", "note": "[S1A]", "protein stability index": 2.86},
      {"variant": "LLGRHKRTHTGEKPYTCSVCGKSF", "note": "[S1L]", "protein stability index": 1.73},
      {"variant": "DLGRHKRTHTGEKPYTCSVCGKSF", "note": "[S1D]", "protein stability index": 3.4},
      {"variant": "SLERHKRTHTGEKPYTCSVCGKSF", "note": "[G3E]", "protein stability index": 3.41},
      {"variant": "SLIRHKRTHTGEKPYTCSVCGKSF", "note": "[G3I]", "protein stability index": 3.15},
      {"variant": "SLARHKRTHTGEKPYTCSVCGKSF", "note": "[G3A]", "protein stability index": 2.12},
      {"variant": "SLKRHKRTHTGEKPYTCSVCGKSF", "note": "[G3K]", "protein stability index": 4.65},
      {"variant": "SLCRHKRTHTGEKPYTCSVCGKSF", "note": "[G3C]", "protein stability index": 3.68},
      {"variant": "SLDRHKRTHTGEKPYTCSVCGKSF", "note": "[G3D]", "protein stability index": 3.32},
      {"variant": "SLHRHKRTHTGEKPYTCSVCGKSF", "note": "[G3H]", "protein stability index": 4.17},
      {"variant": "SFGRHKRTHTGEKPYTCSVCGKSF", "note": "[L2F]", "protein stability index": 2.61},
      {"variant": "SHGRHKRTHTGEKPYTCSVCGKSF", "note": "[L2H]", "protein stability index": 4.09},
      {"variant": "SKGRHKRTHTGEKPYTCSVCGKSF", "note": "[L2K]", "protein stability index": 3.66},
      {"variant": "SNGRHKRTHTGEKPYTCSVCGKSF", "note": "[L2N]", "protein stability index": 3.82},
      {"variant": "SAGRHKRTHTGEKPYTCSVCGKSF", "note": "[L2A]", "protein stability index": 2.71},
      {"variant": "SCGRHKRTHTGEKPYTCSVCGKSF", "note": "[L2C]", "protein stability index": 4.3},
      {"variant": "SMGRHKRTHTGEKPYTCSVCGKSF", "note": "[L2M]", "protein stability index": 2.67},
      {"variant": "STGRHKRTHTGEKPYTCSVCGKSF", "note": "[L2T]", "protein stability index": 3.12},
      {"variant": "SDGRHKRTHTGEKPYTCSVCGKSF", "note": "[L2D]", "protein stability index": 3.19},
      {"variant": "SVGRHKRTHTGEKPYTCSVCGKSF", "note": "[L2V]", "protein stability index": 2.8},
      {"variant": "SIGRHKRTHTGEKPYTCSVCGKSF", "note": "[L2I]", "protein stability index": 2.99},
      {"variant": "SYGRHKRTHTGEKPYTCSVCGKSF", "note": "[L2Y]", "protein stability index": 3.26},
      {"variant": "SGGRHKRTHTGEKPYTCSVCGKSF", "note": "[L2G]", "protein stability index": 2.95},
      {"variant": "SRGRHKRTHTGEKPYTCSVCGKSF", "note": "[L2R]", "protein stability index": 2.04},
      {"variant": "SWGRHKRTHTGEKPYTCSVCGKSF", "note": "[L2W]", "protein stability index": 2.93},
      {"variant": "SQGRHKRTHTGEKPYTCSVCGKSF", "note": "[L2Q]", "protein stability index": 2.25},
      {"variant": "SEGRHKRTHTGEKPYTCSVCGKSF", "note": "[L2E]", "protein stability index": 2.8},
      {"variant": "SPGRHKRTHTGEKPYTCSVCGKSF", "note": "[L2P]", "protein stability index": 2.77}
    ]},
    {"variants_of": "B2", "assay": "protein stability index of a GFP-peptide fusion (GPS, HEK-293T) (PSI 1-6); higher = more stable", "conditions": "c terminus: a fixed tail appended", "values": [
      {"variant": "RNALENIRKEMKLLEQAGSLKGSP", "note": "[L24P]", "protein stability index": 3.77},
      {"variant": "RNALENIRKEMKLLEQAGSLKGSV", "note": "[L24V]", "protein stability index": 3.66},
      {"variant": "RNALENIRKEMKLLEQAGSLKGSS", "note": "[L24S]", "protein stability index": 3.95},
      {"variant": "RNALENIRKEMKLLEQAGSLKGSY", "note": "[L24Y]", "protein stability index": 3.08},
      {"variant": "RNALENIRKEMKLLEQAGSLKGSD", "note": "[L24D]", "protein stability index": 3.99},
      {"variant": "RNALENIRKEMKLLEQAGSLKGSI", "note": "[L24I]", "protein stability index": 3.2},
      {"variant": "RNALENIRKEMKLLEQAGSLKGSM", "note": "[L24M]", "protein stability index": 3.3},
      {"variant": "RNALENIRKEMKLLEQAGSLKGSK", "note": "[L24K]", "protein stability index": 4.12},
      {"variant": "RNALENIRKEMKLLEQAGSLKGSE", "note": "[L24E]", "protein stability index": 4.08},
      {"variant": "RNALENIRKEMKLLEQAGSLKGSC", "note": "[L24C]", "protein stability index": 4.05},
      {"variant": "RNALENIRKEMKLLEQAGSLKGST", "note": "[L24T]", "protein stability index": 3.47},
      {"variant": "RNALENIRKEMKLLEQAGSLKGSW", "note": "[L24W]", "protein stability index": 3.16},
      {"variant": "RNALENIRKEMKLLEQAGSLKGSN", "note": "[L24N]", "protein stability index": 3.81},
      {"variant": "RNALENIRKEMKLLEQAGSLKGSF", "note": "[L24F]", "protein stability index": 3.13},
      {"variant": "RNALENIRKEMKLLEQAGSLKGSA", "note": "[L24A]", "protein stability index": 4.11},
      {"variant": "RNALENIRKEMKLLEQAGSLKPSL", "note": "[G22P]", "protein stability index": 3.51},
      {"variant": "RNALENIRKEMKLLEQAGSLKKSL", "note": "[G22K]", "protein stability index": 4.21},
      {"variant": "RNALENIRKEMKLLEQAGSLKRSL", "note": "[G22R]", "protein stability index": 3.4},
      {"variant": "RNALENIRKEMKLLEQAGSLKMSL", "note": "[G22M]", "protein stability index": 2.27},
      {"variant": "RNALENIRKEMKLLEQAGSLKVSL", "note": "[G22V]", "protein stability index": 2.15},
      {"variant": "RNALENIRKEMKLLEQAGSLKLSL", "note": "[G22L]", "protein stability index": 2.02},
      {"variant": "RNALENIRKEMKLLEQAGSLKQSL", "note": "[G22Q]", "protein stability index": 3.36},
      {"variant": "RNALENIRKEMKLLEQAGSLKSSL", "note": "[G22S]", "protein stability index": 3.14},
      {"variant": "RNALENIRKEMKLLEQAGSLKYSL", "note": "[G22Y]", "protein stability index": 2.28},
      {"variant": "RNALENIRKEMKLLEQAGSLKHSL", "note": "[G22H]", "protein stability index": 2.94},
      {"variant": "RNALENIRKEMKLLEQAGSLKWSL", "note": "[G22W]", "protein stability index": 2},
      {"variant": "RNALENIRKEMKLLEQAGSLKESL", "note": "[G22E]", "protein stability index": 3.57},
      {"variant": "RNALENIRKEMKLLEQAGSLKISL", "note": "[G22I]", "protein stability index": 1.4},
      {"variant": "RNALENIRKEMKLLEQAGSLKNSL", "note": "[G22N]", "protein stability index": 3.04},
      {"variant": "RNALENIRKEMKLLEQAGSLKFSL", "note": "[G22F]", "protein stability index": 2.65},
      {"variant": "RNALENIRKEMKLLEQAGSLKTSL", "note": "[G22T]", "protein stability index": 3.77},
      {"variant": "RNALENIRKEMKLLEQAGSLKGQL", "note": "[S23Q]", "protein stability index": 3.32},
      {"variant": "RNALENIRKEMKLLEQAGSLKGTL", "note": "[S23T]", "protein stability index": 2.8},
      {"variant": "RNALENIRKEMKLLEQAGSLKGRL", "note": "[S23R]", "protein stability index": 3.07},
      {"variant": "RNALENIRKEMKLLEQAGSLKGPL", "note": "[S23P]", "protein stability index": 3.56},
      {"variant": "RNALENIRKEMKLLEQAGSLKGKL", "note": "[S23K]", "protein stability index": 3.39},
      {"variant": "RNALENIRKEMKLLEQAGSLKGYL", "note": "[S23Y]", "protein stability index": 2.73},
      {"variant": "RNALENIRKEMKLLEQAGSLKGCL", "note": "[S23C]", "protein stability index": 3.08},
      {"variant": "RNALENIRKEMKLLEQAGSLKGWL", "note": "[S23W]", "protein stability index": 1.95},
      {"variant": "RNALENIRKEMKLLEQAGSLKGDL", "note": "[S23D]", "protein stability index": 3.48},
      {"variant": "RNALENIRKEMKLLEQAGSLKGEL", "note": "[S23E]", "protein stability index": 3.84},
      {"variant": "RNALENIRKEMKLLEQAGSLKGNL", "note": "[S23N]", "protein stability index": 3.22},
      {"variant": "RNALENIRKEMKLLEQAGSLKGFL", "note": "[S23F]", "protein stability index": 2.64},
      {"variant": "RNALENIRKEMKLLEQAGSLKGVL", "note": "[S23V]", "protein stability index": 2.2},
      {"variant": "RNALENIRKEMKLLEQAGSLKGGL", "note": "[S23G]", "protein stability index": 3.4},
      {"variant": "RNALENIRKEMKLLEQAGSLKGLL", "note": "[S23L]", "protein stability index": 1.87},
      {"variant": "RNALENIRKEMKLLEQAGSLKGHL", "note": "[S23H]", "protein stability index": 3.12},
      {"variant": "RNALENIRKEMKLLEQAGSLKGIL", "note": "[S23I]", "protein stability index": 2.45},
      {"variant": "RNALENIRKEMKLLEQAGSLKGML", "note": "[S23M]", "protein stability index": 2.27},
      {"variant": "RNALENIRKEMKLLEQAGSLKGAL", "note": "[S23A]", "protein stability index": 2.9}
    ]}
  ]
}
